Test results taken from US20140162952A1 (ONCOTHERAPY SCIENCE, published 2014).
Positions count from the first letter of the chain named. Names may count otherwise. Like-named read-outs stand apart in the source and are kept apart here.

Tests used:
NcoR = biological target: T1, NcoR (human, UniProt O75376 1-2440, limits assumed); assay: co-IP from the nuclear fraction of KPL-3C cells, 24 h, 10 nM E2 and/or 10 µM Peptide
T1 construct: also called transcription coupling suppression factor NcoR

Her2 = Her2 (human, UniProt P04626 23-1255); assay: anti-ERα co-IP from the cytoplasm fraction of BT-474 cells, 24 h, 10 nM E2 and/or 10 µM Peptide
EGFR = EGFR (human, UniProt P00533 25-1210); assay: as above
[1] = biological target: inherent PHB2/REA (prohibitin 2 / Repressor of Estrogen Activity) (human, UniProt Q99623 2-299, limits assumed); assay: cell-based or functional assay
Chain of inherent PHB2/REA (prohibitin 2 / Repressor of Estrogen Activity) (Q99623 2-299 limits assumed): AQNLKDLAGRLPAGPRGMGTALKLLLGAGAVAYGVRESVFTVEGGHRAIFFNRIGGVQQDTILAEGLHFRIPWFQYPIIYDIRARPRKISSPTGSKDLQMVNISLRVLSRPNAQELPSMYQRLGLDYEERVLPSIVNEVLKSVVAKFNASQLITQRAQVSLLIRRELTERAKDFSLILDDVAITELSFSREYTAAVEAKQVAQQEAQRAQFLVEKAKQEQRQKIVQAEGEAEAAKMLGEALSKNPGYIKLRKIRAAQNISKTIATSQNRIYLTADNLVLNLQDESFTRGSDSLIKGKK

[2] = biological target: T2, HA-PHB2 (HA-tagged PHB2 construct) (human, UniProt Q99623 1-299, limits assumed); assay: COS-7 co-transfection with the PHB2/REA construct, IP with anti-FLAG antibody, immunoblot
T2 construct: Expressed by transfection in COS-7 or HEK293T cells; also called PHB2/REA construct; HA-tagged PHB2/REA (WT); not shown: HA tag
T2 sequence (Q99623 whole entry): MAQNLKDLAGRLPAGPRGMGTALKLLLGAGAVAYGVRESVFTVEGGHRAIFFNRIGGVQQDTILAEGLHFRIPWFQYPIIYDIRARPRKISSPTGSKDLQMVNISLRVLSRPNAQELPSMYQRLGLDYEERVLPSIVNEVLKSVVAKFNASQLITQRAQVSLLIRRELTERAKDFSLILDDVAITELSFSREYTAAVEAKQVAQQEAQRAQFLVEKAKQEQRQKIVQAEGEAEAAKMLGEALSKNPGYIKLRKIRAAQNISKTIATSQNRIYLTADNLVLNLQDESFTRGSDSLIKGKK

[3] = biological target: T2, HA-PHB2 (HA-tagged PHB2 construct); assay: COS-7 co-transfection with the PHB2/REA construct, IP with anti-HA antibody, immunoblot
[4] = biological target: T2, HA-PHB2 (HA-tagged PHB2 construct); assay: co-immunoprecipitation from COS-7 cells, IP anti-FLAG, blot anti-HA (second experiment)
[5] = biological target: T2, HA-PHB2 (HA-tagged PHB2 construct); assay: COS-7 co-transfection with the PHB2/REA construct, IP and immunoblot
[6] = biological target: T2, HA-PHB2 (HA-tagged PHB2 construct); assay: co-IP from COS-7 cells co-transfected with a Flag-ERAP1 construct and HA-PHB2; IP anti-Flag, IB anti-HA
[7] = biological target: T2, HA-PHB2 (HA-tagged PHB2 construct); assay: as above; remark: listed apart in the source

T1 sequence (O75376 whole entry): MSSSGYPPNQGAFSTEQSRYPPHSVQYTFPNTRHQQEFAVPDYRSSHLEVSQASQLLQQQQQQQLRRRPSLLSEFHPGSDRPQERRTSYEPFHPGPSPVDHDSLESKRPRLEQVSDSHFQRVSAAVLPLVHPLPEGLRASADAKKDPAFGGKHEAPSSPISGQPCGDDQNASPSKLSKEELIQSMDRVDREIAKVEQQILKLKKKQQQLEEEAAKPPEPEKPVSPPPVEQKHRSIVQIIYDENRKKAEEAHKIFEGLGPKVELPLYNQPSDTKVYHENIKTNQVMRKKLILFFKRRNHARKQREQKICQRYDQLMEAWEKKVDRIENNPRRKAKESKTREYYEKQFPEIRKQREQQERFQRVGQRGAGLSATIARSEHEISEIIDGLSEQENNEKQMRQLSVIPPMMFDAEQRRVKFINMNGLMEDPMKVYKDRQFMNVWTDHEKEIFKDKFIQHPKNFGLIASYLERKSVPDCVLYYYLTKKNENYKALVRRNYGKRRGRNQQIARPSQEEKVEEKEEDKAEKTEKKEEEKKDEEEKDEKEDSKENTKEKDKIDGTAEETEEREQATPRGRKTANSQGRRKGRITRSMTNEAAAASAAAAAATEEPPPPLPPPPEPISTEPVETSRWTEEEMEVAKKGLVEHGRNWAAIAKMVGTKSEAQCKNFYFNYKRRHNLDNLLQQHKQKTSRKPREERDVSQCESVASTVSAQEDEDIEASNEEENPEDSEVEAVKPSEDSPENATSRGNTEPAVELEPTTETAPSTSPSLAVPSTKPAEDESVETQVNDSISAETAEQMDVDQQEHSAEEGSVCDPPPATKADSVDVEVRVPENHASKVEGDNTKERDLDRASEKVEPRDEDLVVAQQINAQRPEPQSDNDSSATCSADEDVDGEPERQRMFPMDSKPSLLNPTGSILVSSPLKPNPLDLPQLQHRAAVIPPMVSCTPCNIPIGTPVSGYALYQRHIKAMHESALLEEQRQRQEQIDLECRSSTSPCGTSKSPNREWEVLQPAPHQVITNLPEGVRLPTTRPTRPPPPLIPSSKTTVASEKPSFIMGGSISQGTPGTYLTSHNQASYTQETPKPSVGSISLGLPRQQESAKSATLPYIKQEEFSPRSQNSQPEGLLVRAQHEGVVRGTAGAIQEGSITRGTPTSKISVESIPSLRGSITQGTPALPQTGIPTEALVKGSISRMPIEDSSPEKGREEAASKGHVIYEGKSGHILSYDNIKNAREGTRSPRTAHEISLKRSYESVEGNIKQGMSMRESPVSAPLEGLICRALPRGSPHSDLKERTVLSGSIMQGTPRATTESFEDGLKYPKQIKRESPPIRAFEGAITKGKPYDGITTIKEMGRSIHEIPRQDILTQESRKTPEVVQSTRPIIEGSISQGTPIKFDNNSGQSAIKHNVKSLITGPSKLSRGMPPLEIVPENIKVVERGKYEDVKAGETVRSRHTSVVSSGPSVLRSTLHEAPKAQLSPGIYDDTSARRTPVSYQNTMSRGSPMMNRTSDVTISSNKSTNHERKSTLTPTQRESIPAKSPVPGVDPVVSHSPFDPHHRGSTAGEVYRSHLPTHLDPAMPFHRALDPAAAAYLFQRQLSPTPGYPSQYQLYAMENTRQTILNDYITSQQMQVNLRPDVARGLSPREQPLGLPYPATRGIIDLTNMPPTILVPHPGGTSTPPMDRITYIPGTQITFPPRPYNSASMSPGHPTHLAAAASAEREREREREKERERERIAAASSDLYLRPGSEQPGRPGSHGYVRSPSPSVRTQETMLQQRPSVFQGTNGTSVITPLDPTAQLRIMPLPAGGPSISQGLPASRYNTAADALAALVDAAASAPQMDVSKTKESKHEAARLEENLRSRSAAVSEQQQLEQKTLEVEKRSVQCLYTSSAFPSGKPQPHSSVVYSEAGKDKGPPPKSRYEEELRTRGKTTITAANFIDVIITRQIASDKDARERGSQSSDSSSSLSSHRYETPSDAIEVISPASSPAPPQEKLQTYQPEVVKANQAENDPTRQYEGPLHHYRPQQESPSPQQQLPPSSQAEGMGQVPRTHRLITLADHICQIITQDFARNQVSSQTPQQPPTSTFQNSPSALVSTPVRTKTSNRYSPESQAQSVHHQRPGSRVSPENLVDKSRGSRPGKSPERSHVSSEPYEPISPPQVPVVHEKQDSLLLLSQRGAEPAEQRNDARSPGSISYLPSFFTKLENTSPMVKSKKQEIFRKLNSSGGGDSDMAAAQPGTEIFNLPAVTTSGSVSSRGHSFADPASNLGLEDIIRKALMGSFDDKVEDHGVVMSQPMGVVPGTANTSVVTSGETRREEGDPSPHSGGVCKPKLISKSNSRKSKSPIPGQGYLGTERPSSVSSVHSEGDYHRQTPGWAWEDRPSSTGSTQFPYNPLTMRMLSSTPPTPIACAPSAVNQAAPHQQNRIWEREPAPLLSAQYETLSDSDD

B1: estrogen receptor α (ERα) (receptor)
chain: MTMTLHTKASGMALLHQIQGNELEPLNRPQLKIPLERPLGEVYLDSSKPAVYNYPEGAAYEFNAAAAANAQVYGQTGLPYGPGSEAAAFGSNGLGGFPPLNSVSPSPLMLLHPPPQLSPFLQPHGQQVPYYLENEPSGYTVREAGPPAFYRPNSDNRRQGGRERLASTNDKGSMAMESAKETRYCAVCNDYASGYHYGVWSCEGCKAFFKRSIQGHNDYMCPATNQCTIDKNRRKSCQACRLRKCYEVGMMKGGIRKDRRGGRMLKHKRQRDDGEGRGEVGSAGDMRAANLWPSPLMIKRSKKNSLALSLTADQMVSALLDAEPPILYSEYDPTRPFSEASMMGLLTNLADRELVHMINWAKRVPGFVDLTLHDQVHLLECAWLEILMIGLVWRSMEHPGKLLFAPNLLLDRNQGKCVEGMVEIFDMLLATSSRFRMMNLQGEEFVCLKSIILLNSGVYTFLSSTLKSLEEKDHIHRVLDKITDTLIHLMAKAGLTLQQQHQRLAQLLLILSHIRHMSNKGMEHLYSMKCKNVVPLYDLLLEMLDAHRLHAPTSRGGASVEETDQSHLATAGSTSSHSLQKYYITGEAEGFPATV
notes: Immunoprecipitated with anti-ERα antibody from cytoplasm or nuclear fractions
NcoR
  binding result: binds
Her2
  binding result: binds
EGFR
  binding result: binds

## RRRRRRRRRRRQMLSDLTLQLRQR [ERAP1-peptide (11R-bound dominant negative peptide, ERAP1 165-177)]
[1]
  IC50 of suppression effect for the cell proliferation in MCF-7 cells for 24 hours: 2180 nM

B2: ERAP1 alanine mutant of D169 (D169A) (other)
chain: MEEILRKLQKEASGSKYKAIKESCTWALETLGGLDTIVKIPPHVLREKCLLPLQLALESKNVKLAQHALAGMQKLLSEERFVSMETDSDEKQLLNQILNAVKVTPSLNEDLQVEVMKVLLCITYTPTFDLNGSAVLKIAEVCIETYISSCHQRSINTAVRATLSQMLSALTLQLRQRQENTIIENPDVPQDFGNQGSTVESLCDDVVSVLTVLCEKLQAAINDSQQLQLLYLECILSVLSSSSSSMHLHRRFTDLIWKNLCPALIVILGNPIHDKTITSAHTSSTSTSLESDSASPGVSDHGRGSGCSCTAPALSGPVARTIYYIAAELVRLVGSVDSMKPVLQSLYHRVLLYPPPQHRVEAIKIMKEILGSPQRLCDLAGPSSTESESRKRSISKRKSHLDLLKLIMDGMTEACIKGGIEACYAAVSCVCTLL
notes: also called D169 mutant construct; not shown: Flag tag
[2]
  coprecipitation band, ratio when that with ERAP1 (1-434 aa) is designated as 100: 22%
[3]
  coprecipitation band, ratio when that with ERAP1 (1-434 aa) is designated as 100: 0%
[4]
  ratio of the coprecipitated band (ERAP1 1-434 = 100): 33

B3: ERAP1 alanine mutant of Q165 and D169 (Q165A, D169A) (other)
chain: B2 chain with Q165A
notes: not shown: Flag tag
[5]
  coprecipitation band, ratio when that with ERAP1 (1-434 aa) is designated as 100: 12%

B4: ERAP1 alanine mutant of Q165 (Q165A) (other)
chain: B2 chain with Q165A, A169D
notes: also called Q165 mutant construct; not shown: Flag tag
[2]
  coprecipitation band, ratio when that with ERAP1 (1-434 aa) is designated as 100: 60%
[3]
  coprecipitation band, ratio when that with ERAP1 (1-434 aa) is designated as 100: 24%
[4]
  ratio of the coprecipitated band (ERAP1 1-434 = 100): 63

B5: ERAP1 435-2177 (Flag-ERAP1) (other, not shown: small tags and cut ends)
chain: GALDELSQGKGLSEGQVQLLLLRLEELKDGAEWSRDSMEINEADFRWQRRVLSSEHTPWESGNERSLDISISVTTDTGQTTLEGELGQTTPEDHSGNHKNSLKSPAIPEGKETLSKVLETEAVDQPDVVQRSHTVPYPDITNFLSVDCRTRSYGSRYSESNFSVDDQDLSRTEFDSCDQYSMAAEKDSGRSDVSDIGSDNCSLADEEQTPRDCLGHRSLRTAALSLKLLKNQEADQHSARLFIQSLEGLLPRLLSLSNVEEVDTALQNFASTFCSGMMHSPGFDGNSSLSFQMLMNADSLYTAAHCALLLNLKLSHGDYYRKRPTLAPGVMKDFMKQVQTSGVLMVFSQAWIEELYHQVLDRNMLGEAGYWGSPEDNSLPLITMLTDIDGLESSAIGGQLMASAATESPFAQSRRIDDSTVAGVAFARYILVGCWKNLIDTLSTPLTGRMAGSSKGLAFILGAEGIKEQNQKERDAICMSLDGLRKAARLSCALGVAANCASALAQMAAASCVQEEKEEREAQEPSDAITQVKLKVEQKLEQIGKVQGVWLHTAHVLCMEAILSVGLEMGSHNPDCWPHVFRVCEYVGTLEHNHFSDGASQPPLTISQPQKATGSAGLLGDPECEGSPPEHSPEQGRSLSTAPVVQPLSIQDLVREGSRGRASDFRGGSLMSGSSAAKVVLTLSTQADRLFEDATDKLNLMALGGFLYQLKKASQSQLFHSVTDTVDYSLAMPGEVKSTQDRKSALHLFRLGNAMLRIVRSKARPLLHVMRCWSLVAPHLVEAACHKERHVSQKAVSFIHDILTEVLTDWNEPPHFHFNEALFRPFERIMQLELCDEDVQDQVVTSIGELVEVCSTQIQSGWRPLFSALETVHGGNKSEMKEYLVGDYSMGKGQAPVFDVFEAFLNTDNIQVFANAATSYIMCLMKFVKGLGEVDCKEIGDCAPAPGAPSTDLCLPALDYLRRCSQLLAKIYKMPLKPIFLSGRLAGLPRRLQEQSASSEDGIESVLSDFDDDTGLIEVWIILLEQLTAAVSNCPRQHQPPTLDLLFELLRDVTKTPGPGFGIYAVVHLLLPVMSVWLRRSHKDHSYWDMASANFKHAIGLSCELVVEHIQSFLHSDIRYESMINTMLKDLFELLVACVAKPTETISRVGCSCIRYVLVTAGPVFTEEMWRLACCALQDAFSATLKPVKDLLGCFHSGTESFSGEGCQVRVAAPSSSPSAEAEYWRIRAMAQQVFMLDTQCSPKTPNNFDHAQSCQLIIELPPDEKPNGHTKKSVSFREIVVSLLSHQVLLQNLYDILLEEFVKGPSPGEEKTIQVPEAKLAGFLRYISMQNLAVIFDLLLDSYRTAREFDTSPGLKCLLKKVSGIGGAANLYRQSAMSFNIYFHALVCAVLTNQETITAEQVKKVLFEDDERSTDSSQQCSSEDEDIFEETAQVSPPRGKEKRQWRARMPLLSVQPVSNADWVWLVKRLHKLCMELCNNYIQMHLDLENCMEEPPIFKGDPFFILPSFQSESSTPSTGGFSGKETPSEDDRSQSREHMGESLSLKAGGGDLLLPPSPKVEKKDPSRKKEWWENAGNKIYTMAADKTISKLMTEYKKRKQQHNLSAFPKEVKVEKKGEPLGPRGQDSPLLQRPQHLMDQGQMRHSFSAGPELLRQDKRPRSGSTGSSLSVSVRDAEAQIQAWTNMVLTVLNQIQILPDQTFTALQPAVFPCISQLTCHVTDIRVRQAVREWLGRVGRVYDIIV
[6]
  binding result: no binding

B6: Flag-ERAP1 1-100 (other, not shown: small tags and cut ends)
chain: MEEILRKLQKEASGSKYKAIKESCTWALETLGGLDTIVKIPPHVLREKCLLPLQLALESKNVKLAQHALAGMQKLLSEERFVSMETDSDEKQLLNQILNA
notes: deletion construct
[7]
  binding result: no binding

B7: ERAP1 1468-2177 (Flag-ERAP1) (other, not shown: small tags and cut ends)
chain: CPRQHQPPTLDLLFELLRDVTKTPGPGFGIYAVVHLLLPVMSVWLRRSHKDHSYWDMASANFKHAIGLSCELVVEHIQSFLHSDIRYESMINTMLKDLFELLVACVAKPTETISRVGCSCIRYVLVTAGPVFTEEMWRLACCALQDAFSATLKPVKDLLGCFHSGTESFSGEGCQVRVAAPSSSPSAEAEYWRIRAMAQQVFMLDTQCSPKTPNNFDHAQSCQLIIELPPDEKPNGHTKKSVSFREIVVSLLSHQVLLQNLYDILLEEFVKGPSPGEEKTIQVPEAKLAGFLRYISMQNLAVIFDLLLDSYRTAREFDTSPGLKCLLKKVSGIGGAANLYRQSAMSFNIYFHALVCAVLTNQETITAEQVKKVLFEDDERSTDSSQQCSSEDEDIFEETAQVSPPRGKEKRQWRARMPLLSVQPVSNADWVWLVKRLHKLCMELCNNYIQMHLDLENCMEEPPIFKGDPFFILPSFQSESSTPSTGGFSGKETPSEDDRSQSREHMGESLSLKAGGGDLLLPPSPKVEKKDPSRKKEWWENAGNKIYTMAADKTISKLMTEYKKRKQQHNLSAFPKEVKVEKKGEPLGPRGQDSPLLQRPQHLMDQGQMRHSFSAGPELLRQDKRPRSGSTGSSLSVSVRDAEAQIQAWTNMVLTVLNQIQILPDQTFTALQPAVFPCISQLTCHVTDIRVRQAVREWLGRVGRVYDIIV
notes: deletion construct
[6]
  binding result: no binding

B8: Flag-ERAP1 1-250 (other, not shown: small tags and cut ends)
chain: MEEILRKLQKEASGSKYKAIKESCTWALETLGGLDTIVKIPPHVLREKCLLPLQLALESKNVKLAQHALAGMQKLLSEERFVSMETDSDEKQLLNQILNAVKVTPSLNEDLQVEVMKVLLCITYTPTFDLNGSAVLKIAEVCIETYISSCHQRSINTAVRATLSQMLSDLTLQLRQRQENTIIENPDVPQDFGNQGSTVESLCDDVVSVLTVLCEKLQAAINDSQQLQLLYLECILSVLSSSSSSMHLHR
notes: deletion construct
[7]
  binding result: binds
